Results as given in US20260365719 (published 2026).

Biological target: SARS-CoV-2 spike trimer (Wuhan) (SARS-CoV-2, UniProt P0DTC2)
Assay: competition

Binder	IC50 [µg/mL]
Bebtelovimab (antibody, V domains shown) VH: QITLKESGPTLVKPTQTLTLTCTFSGFSLSISGVGVGWLRQPPGKALEWLALIYWDDDKRYSPSLKSRLTISKDTSKNQVVLKMTNIDPVDTATYYCAHHSISTIFDHWGQGTLVTVSS VL: QSALTQPASVSGSPGQSITISCTATSSDVGDYNYVSWYQQHPGKAPKLMIFEVSDRPSGISNRFSGSKSGNTASLTISGLQAEDEADYYCSSYTTSSAVFGGGTKLTVLG	0.00899
6R9A-A2 (antibody, V domains shown) VH: EVQLVESGGGLVQPGGSLRLSCTASGFSFPHQAMTWVRQAPGKGLEWIGVIASNADTYYASWAKGRFTISRDNSKNTLYLQMNSLRAEDTAVYYCARHPGSAGYGYQYYYAMDPWGQGTLVTVSS VL: DIQMTQSPSSLSASVGDRVTITCQASEEVHYGINWYQQKPGKAPKLLIYGANYRVDGVPSRFSGSGSGTDYTLTISSLQPEDFATYYCQQGYNVPTDFGGGTKVEIKR	0.014
6R8A-F2 (antibody, V domains shown) VH: EVQLVESGGGLVQPGGSLRLSCKASGYSLSSQALTWVRQAPGKGLEWIGVIASNADTYYASWAKGRFTISRDNSKNTLYLQMNSLRAEDTAVYYCARHPGSAGYGYQYYYAMDPWGQGTLVTVSS VL: DIQMTQSPSSLSASVGDRVTITCQASEKVYYGVNWYQQKPGKAPKLLIYGTNYRLDGVPSRFSGSGSGTDSTLTISSLQPEDFATYYCQQGYNVPNAFGGGTKVEIKR	0.0169
6R8C-G8 (antibody, V domains shown) VH: EVQLVESGGGLVQLGGSLRLSCKASGYSLAPQAMTWVRQAPGKGLEWIGVIASNADTYYASWAKGRFTISRDNSKNTLYLQMNSLRAEDTAVYYCARHPGSAGYGYQYYYAMDPWGQGTLVTVSS VL: DIQMTQSPSSLSASVGDRVTITCQASEEVHYGINWYQQKPGKAPKLLIYGANYRVDGVPSRFSGSGSGTDYTLTISSLQPEDFATYYCQQGYNVPTDFGGGTKVEIKR	0.0124
6R8A-E1 (antibody, V domains shown) VH: EVQLVESGGGLVQPGGSLRLSCKASGYSLAPQAMTWVRQAPGKGLEWIGVIASNADTYYASWAKGRFTISRDNSKNTLYLQMNSLRAEDTAVYYCARHPGSAGYGYQYYYAMDPWGQGTLVTVSS VL: DIQMTQSPSSLSASVGDRVTITCQASENIRYAINWYQQKPGKAPKLLIYGANYRVDGVPSRFSGSGSGTDYTLTISSLQPEDFATYYCQQGYNVPTDFGGGTKVEIKR	0.0122
6R8C-D10 (antibody, V domains shown) VH: EVQLVESGGGLVQPGGSLRLSCTASGYSISHQAVTWVRQAPGKGLEWIGVIASNADTYYASWAKGRFTISRDNSKNTLYLQMNSLRAEDTAVYYCARHPGSAGYGYQYYYAMDPWGQGTLVTVSS VL: DIQMTQSPSSLSASVGDRVTITCQASEEVHYGINWYQQKPGKAPKLLIYGANYRVDGVPSRFSGSGSGTDYTLTISSLQPEDFATYYCQQGYNVPTDFGGGTKVEIKR	0.0098
6R9B-B11 (antibody, V domains shown) VH: EVQLVESGGGLVQPGGSLRLSCKASGFTFSRQALTWVRQAPGKGLEWIGVIASNADTYYASWAKGRFTISRDNSKNTLYLQMNSLRAEDTAVYYCARHPGSAGYGYQYYYAMDPWGQGTLVTVSS VL: DIQMTQSPSSLSASVGDRVTITCQASQAIKYAINWYQQKPGKAPKLLIYGANYRGPGVPSRFSGSGSGTDYTLTISSLQPEDFATYYCQQGYIVPITFGGGTKVEIKR	0.015
6R9B-E9 (antibody, V domains shown) VH: EVQLVESGGGLVQPGGSLRLSCKASGFTFSRQALTWVRQAPGKGLEWIGVIASNADTYYASWAKGRFTISRDNSKNTLYLQMNSLRAEDTAVYYCARHPGSAGYGYQYYYAMDPWGQGTLVTVSS VL: DIQMTQSPSSLSASVGDRVTITCQASENIRYAVNWYQQKPGKAPKLLIYGANYRVDGVPSRFSGSGSGTDYTLTISSLQPEDFATYYCQQGYRVQILFGGGTKVEIKR	0.0185
6R8C-F10 (antibody, V domains shown) VH: EVQLVESGGGLVQPGGSLRLSCKASGFTFSRQALTWVRQAPGKGLEWIGVIASNADTYYASWAKGRFTISRDNSKNTLYLQMNSLRAEDTAVYYCARHPGSAGYGYQYYYAMDPWGQGTLVTVSS VL: DIQMTQSPSSLSASVGDRVTITCKASEDIRYGLNWYQQKPGKAPKLLIYGANYRVDGVPSRFSGSGSGTDYTLTISSLQPEDFATYYCQQGYNVPNFFGGGTKVEIKR	0.0145
6R9E-A8 (antibody, V domains shown) VH: EVQLVESGGGLVQPGGSLRLSCKASGSTISHQAVTWVRQAPGKGLEWIGVIASNADTYYASWAKGRFTISRDNSKNTLYLQMNSLRAEDTAVYYCARHPGSAGYGYQYYYAMDPWGQGTLVTVSS VL: DIQMTQSPSSLSASVGDRVTITCQASEEVHYGINWYQQKPGKAPKLLIYGANYRVDGVPSRFSGSGSGTDYTLTISSLQPEDFATYYCQQGYNVPTDFGGGTKVEIKR	0.0274
6R8A-A2 (antibody, V domains shown) VH: EVQLVESGGGLVQPGGSLRLSCKASGYSLNKQALTWVRQAPGKGLEWIGVIASNADTYYASWAKGRFTISRDNSKNTLYLQMNSLRAEDTAVYYCARHPGSAGYGYQYYYAMDPWGQGTLVTVSS VL: DIQMTQSPSSLSASVGDRVTITCQASEEVHYGINWYQQKPGKAPKLLIYGANYRVDGVPSRFSGSGSGTDYTLTISSLQPEDFATYYCQQGYNVPTDFGGGTKVEIKR	0.0106
6R8C-D9 (antibody, V domains shown) VH: EVQLVESGGGLVQPGGSLRLSCKASGFTFSRQALTWVRQAPGKGLEWIGVIASNADTYYASWAKGRFTISRDNSKNTLYLQMNSLRAEDTAVYYCARHPGSAGYGYQYYYAMDPWGQGTLVTVSS VL: DIQMTQSPSSLSASVGDRVTITCQASEEVHYGINWYQQKPGKAPKLLIYGANYRVDGVPSRFSGSGSGTDYTLTISSLQPEDFATYYCQQGYNVPTDFGGGTKVEIKR	0.0203
6R8A-E11 (antibody, V domains shown) VH: EVQLVESGGGLVQPGGSLRLSCKASGFTFSRQALTWVRQAPGKGLEWIGVIASNADTYYASWAKGRFTISRDNSKNTLYLQMNSLRAEDTAVYYCARHPGSAGYGYQYYYAMDPWGQGTLVTVSS VL: DIQMTQSPSSLSASVGDRVTITCQASENIRYAINWYQQKPGKAPKLLIYGANYRVDGVPSRFSGSGSGTDYTLTISSLQPEDFATYYCQQGYNVPTDFGGGTKVEIKR	0.0116
